Experiments:
poly(dT) = assay: Apparent miscoding on homopolymeric template poly(dT); format: biochemical
Procedure: Transcription reactions: Transcription reactions were carried out in 40 mM Tris-Cl pH 8.0, 15 mM MgCl2, and 5 mM DTT or 20 mM Manganese Citrate pH 8.0, 5 mM DTT at 37° C. Template, polymerase, and NTP concentrations were as indicated in the legends to the figures and tables. Relative activity determinations were made by taking 4 μl aliquots of reactions at 5, 10, and 20 minute time points and spotting on to DE81 filter paper. Unincorporated nucleotides were separated from incorporated nucleotides by washing the filter paper with 0.5 M KH2PO4 pH 7.0 and retained radioactive nucleotide was quantitated with a Molecular Dynamics phosphorimager. To evaluate rNTP/dNTP selectivity, reactions were run with 4 rNTPs and pT75 as template and α-P^32 rNTPs or α-P^32 dNTPs were used to label the transcripts. The relative rate of incorporation of an rNTP vs. its cognate dNTP was determined from the relative percentages of labeled rNTP vs. dNTP incorporated into DE81 retainable RNA at 5, 10, and 20 minute time points. Apparent miscoding frequencies were determined similarly, though in this instance the template was a single-stranded homopolymer and the reaction contained the complementary unlabeled rNTP, and complementary α-P^32 rNTP or one of the 3 non-complementary α-P^32 rNTPs. The relative percentages of labeled complementary vs. non-complementary rNTPs incorporated at 5, 10 and 20 minute time points gave an apparent miscoding rate. The rNTP/dNTP selectivity assay was used to test the following T7 RNAP mutants for effects on substrate discrimination: D537S, D537E, S539A, R5S1S, D552S, R627S, K631S, L637A, Y639S, Y639F, Y639A, G640A, F644A, G645A, Q649S, […], H811S, H811A, D812A, D812E, D812S, D812N, D879E+ΔF882+ΔA883, D879E+A881T+ΔA883, D879E+F884+A885, D879E+F882Y, D879E+ΔA883, D879E+F882W, D879E.
An increase in miscoding would be reflected in an increase in the rate of incorporation of the non-complementary NTP into RNA.
Numbers are averages from 2 experiments and reflect the ratio of the percentages of labeled rNTPs incorporated into RNA in reactions in which unlabeled complementary rNTPs were in great excess (0.5 mM) to labeled complementary or non-complementary rNTPs. Templates were at 0.1 mg/ml. Polymerases were at 10^−8 M in Mg^2+ buffer and 10^−7 M in Mn^2+ buffer.
*The upper number refers to results obtained in Mg^2+ buffer, the lower number to results in Mn^2+ buffer. n.d.: G640A, Y639A, Y639S were poorly active in Mn^2+ buffer, or on poly(dT) under all conditions.

supercoiled pT75 = assay: Kinetic constants (Km, kcat) with rNTPs or dNTPs; format: biochemical
Source text: 1. One first determines the Km and the kcat for each enzyme (mutant and wild-type) using the non-canonical nucleotide as a substrate and using the canonical nucleotide as a substrate, as was described previously (Patra, et al., 1992). The value “Km” expresses how readily the enzyme will bind the substrate (a larger Km implies weaker binding) and “kcat” expresses the rapidity with which the substrate, once bound by the enzyme, is reacted upon.
2. One next calculates the numerical value for kcat/Km for each enzyme and for each substrate. By broad scientific consensus, the specificity of an enzyme for a substrate is felt to be most suitably expressed by this ratio.
3. For each enzyme, one then calculates the numerical value obtained by using the value of kcat/Km for the canonical substrate in the numerator and kcat/Km for the non-canonical substrate in the denominator. This number indicates how much a given enzyme discriminates between the two substrates. […] If this value is greater than 1, then the enzyme discriminates by that factor between the two substrates; for example, if the value is 100, then the enzyme discriminates by a factor of 100 in favor of the canonical substrate compared to the non-canonical substrate. Similarly, a value less than 1 means that the enzyme discriminates in favor of the non-canonical substrate over the canonical substrate.
4. Finally, one compares the numerical value calculated in step 3 above for the wild-type (W.T.) enzyme with the value calculated in step 3 for the mutant enzyme. If the value calculated for the mutant enzyme is less than the value calculated for the wild-type enzyme, then the mutant enzyme “has a reduced discrimination for the non-canonical substrate compared to the wild-type enzyme.” For example, if the values calculated in step 3 are 100 for the wild-type enzyme and 10 for the mutant enzyme, then the discrimination of the mutant enzyme in favor of the canonical substrate (or against the non-canonical substrate) is reduced 10-fold compared to the discrimination of the wild-type enzyme.
Determination of NTP Km and kcat was as described previously (Patra, et al., 1992).
The increased utilization of dNTPs by Y639F is due to both a decreased Km and an increased kcat for dNTPs: The Km and kcat of the W.T. and Y639F polymerases with rATP, rITP and 5 different dNTPs were measured (see, Table VI).

[1] = rATP, ranges from 3 experiments

Substance | Increase in miscoding rates in Mn^2+ buffer, on average (poly(dT)) | Relative rate of incorporation ATP/CTP (poly(dT); Mg^2+ buffer) | Relative rate of incorporation ATP/GTP (poly(dT); Mg^2+ buffer) | Relative rate of incorporation ATP/UTP (poly(dT); Mg^2+ buffer) | Relative rate of incorporation ATP/CTP (poly(dT); Mn^2+ buffer) | Relative rate of incorporation ATP/GTP (poly(dT); Mn^2+ buffer) | Relative rate of incorporation ATP/UTP (poly(dT); Mn^2+ buffer) | Discrimination rNTPs vs. dNTPs: average kcat/Km of four rNTPs over average kcat/Km of four dNTPs (supercoiled pT75) | Kcat (supercoiled pT75; DTTP) | Km (supercoiled pT75; DTTP) | Kcat (supercoiled pT75; dATP) | Km (supercoiled pT75; dATP) | Kcat (supercoiled pT75; dCTP) | Km (supercoiled pT75; dCTP) | Kcat (supercoiled pT75; dGTP) | Km (supercoiled pT75; dGTP) | Kcat (supercoiled pT75; dUTP) | Km (supercoiled pT75; dUTP) | Kcat (supercoiled pT75; rATP) | Km (supercoiled pT75; [1]) | further results
W.T.: wild-type T7 RNA polymerase [reference compound] | ~5 fold | >340 | 170 | 121 | 77 | 50 | 21 | about 120 fold | 26 to 29 s⁻¹ | 209 to 262 µM | 6 to 9 s⁻¹ | 2000 to 5000 µM | 9 to 14 s⁻¹ | 4300 to 13500 µM | 5 to 9 s⁻¹ | 602 to 701 µM | 25 to 39 s⁻¹ | 4400 to 9000 µM | 190 to 220 s⁻¹ | 34 to 68 µM | Kcat (supercoiled pT75; rITP): 170 to 230 s⁻¹; Km (supercoiled pT75; rITP): 29 to 59 µM
Y639F: T7 RNAP with wild-type tyrosine at position 639 substituted by phenylalanine | ~5 fold | >94 | 94 | 94 | 60 | 27 | 20 | about 6 fold | 70 to 110 s⁻¹ | 38 to 59 µM | 50 to 70 s⁻¹ | 200 to 350 µM | 50 to 90 s⁻¹ | 920 to 1600 µM | 30 to 50 s⁻¹ | 185 to 264 µM | 70 to 130 s⁻¹ | 52 to 92 µM | 150 to 210 s⁻¹ | 53 to 125 µM | Increase, relative to W.T., in ratio of rates of rGTP to rATP incorporation (poly(dT)): ~2 fold; kcat with dNTPs less than for rNTPs (supercoiled pT75): 2-4 fold; Reduced discrimination between dNTPs and rNTPs compared to wild-type (supercoiled pT75; from average kcat/Km values): ~20 fold; Kcat (supercoiled pT75; rITP): 180 to 200 s⁻¹; Km (supercoiled pT75; rITP): 34 to 94 µM
